This assay has as its target T1, T-cell protein tyrosine phosphatase, 45 kDa form (TC45) (UniProt P17706-2 1-387).
T1 sequence (looked up): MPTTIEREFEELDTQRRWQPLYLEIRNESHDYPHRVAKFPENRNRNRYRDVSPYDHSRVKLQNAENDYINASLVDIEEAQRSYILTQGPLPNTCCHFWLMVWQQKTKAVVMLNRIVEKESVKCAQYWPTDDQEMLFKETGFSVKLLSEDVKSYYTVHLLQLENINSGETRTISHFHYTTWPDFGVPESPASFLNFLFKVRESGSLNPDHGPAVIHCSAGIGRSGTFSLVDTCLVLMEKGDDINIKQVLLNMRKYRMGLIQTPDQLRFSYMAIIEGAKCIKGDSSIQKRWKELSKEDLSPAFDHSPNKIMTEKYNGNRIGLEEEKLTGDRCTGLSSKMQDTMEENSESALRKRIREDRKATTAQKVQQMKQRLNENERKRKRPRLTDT
Put plainly: cell-based or functional assay.

In the case of RPLKKKMEK [α1-cyt peptide (α1 cytoplasmic specific sequence lacking the conserved domain, RPLKKKMEK)], the “activation of recombinant TC45 in DiFMUP phosphatase assay by 10 μM α1-cyt peptide” value came to 2.4 fold.

Values taken from PMC2820462, “Inhibition of receptor tyrosine kinase signalling by small molecule agonist of T-cell protein tyrosine phosphatase” (BMC Cancer, 2010).
